Measured values reported in PMC7479153, “GFP fluorescence tagging alters dynamin-related protein 1 oligomerization dynamics and creates disassembly-refractory puncta to mediate mitochondrial fission” (Scientific Reports, 2020).

Assays:
[1] = molecular target: the molecule itself; assay: cell-based or functional assay
[2] = molecular target: the molecule itself; assay: SEC-MALS; Superose 6 10/300 GL, 20 mM HEPES pH 7.5, 150 mM KCl, 1 mM DTT; loading protein concentration varied, 500 uL injected; no nucleotide
[3] = molecular target: the molecule itself; assay: number and brightness (N&B) analysis; living transfected wt MEFs, Drp1-null MEFs and HeLa cells, 37 C; brightness normalised to that of mEGFP alone taken as the monomer; puncta on mitochondria left out
[4] = molecular target: the molecule itself; assay: fluorescence correlation spectroscopy (single-point FCS); 0.5 uM fluorescently labeled protein in solution, 25 C, 20 mM HEPES pH 7.5, 150 mM KCl, 1 mM DTT; without and with 1 mM GMP-PCP and 1 mM MgCl2 (30 min); unlabeled Drp1-wt (1 uM final, 2X molar excess) added where it is the partner

B1: mEGFP-Drp1 (N-terminally mEGFP-tagged Drp1 isoform 3), recombinant from E. coli (natural protein, human, UniProt O00429-4 1-699, looked up)
chain: MEALIPVINKLQDVFNTVGADIIQLPQIVVVGTQSSGKSSVLESLVGRDLLPRGTGIVTRRPLILQLVHVSQEDKRKTTGEENGVEAEEWGKFLHTKNKLYTDFDEIRQEIENETERISGNNKGVSPEPIHLKIFSPNVVNLTLVDLPGMTKVPVGDQPKDIELQIRELILRFISNPNSIILAVTAANTDMATSEALKISREVDPDGRRTLAVITKLDLMDAGTDAMDVLMGRVIPVKLGIIGVVNRSQLDINNKKSVTDSIRDEYAFLQKKYPSLANRNGTKYLARTLNRLLMHHIRDCLPELKTRINVLAAQYQSLLNSYGEPVDDKSATLLQLITKFATEYCNTIEGTAKYIETSELCGGARICYIFHETFGRTLESVDPLGGLNTIDILTAIRNATGPRPALFVPEVSFELLVKRQIKRLEEPSLRCVELVHEEMQRIIQHCSNYSTQELLRFPKLHDAIVEVVTCLLRKRLPVTNEMVHNLVAIELAYINTKHPDFADACGLMNNNIEEQRRNRLARELPSAVSRDKVASGGGGVGDGVQEPTTGNWRGMLKTSKAEELLAEEKSKPIPIMPASPQKGHAVNLLDVPVPVARKLSAREQRDCEVIERLIKSYFLIVRKNIQDSVPKAVMHFLVNHVKDTLQSELVGQLYKSSLLDDLLTESEDMAQRRKEAADMLKALQGASQIIAEIRETHLW
notes: dynamin-related protein 1 (Drp1), human, isoform 3, printed length 699 aa; mEGFP is EGFP with A206K (also denoted A207K); fusion sub-cloned from pEGFP-C1 into pET28a; Monomer ~111 kDa as printed; source: E. coli (pET28a), purified to apparent homogeneity, then gel filtration (ENrich SEC 650); not shown: mEGFP, N-terminal, kept
- decrease in GTP turnover (kcat) relative to Drp1-wt, basal and cardiolipin-stimulated, malachite green assay, 0.5 uM protein [1]: > 50%
- stoichiometry N [2]: ≥ 4

B2: mEGFP-Drp1 (N-terminally mEGFP-tagged Drp1 isoform 3), expressed in mammalian cells (natural protein, human, UniProt O00429-4 1-699, looked up)
chain: B1 chain
notes: dynamin-related protein 1 (Drp1), human, isoform 3, printed length 699 aa; mEGFP is EGFP with A206K; In wt MEFs and HeLa cells endogenous Drp1 is also present; also called cytosolic mEGFP-Drp1; source: wt MEFs, Drp1-null MEFs and HeLa cells, transfected (pEGFP-C1), in living cells; not shown: mEGFP, N-terminal, kept
- stoichiometry N [3]: ~4

B3: Drp1-wt (N-terminal 6XHis-tagged human dynamin-related protein 1, isoform 3) (natural protein, UniProt O00429-4 1-699, looked up)
chain: B1 chain
notes: dynamin-related protein 1 (Drp1), human, isoform 3, printed length 699 aa; also called unlabeled Drp1-wt; native-like His-tagged Drp1; source: E. coli, purified to apparent homogeneity, then gel filtration (ENrich SEC 650)
- stoichiometry N [2]: ≥ 2

B4: Drp1-BODIPY FL (Drp1 labeled on surface Cys with BODIPY-FL C1-iodoacetamide) (natural protein, human, UniProt O00429-4 1-699, looked up)
chain: B1 chain
modifications: BODIPY-FL iodoacetamide on Cys; primary targets of thiol modification are surface residues C505 and C607; ~2 mol dye/mol protein
notes: dynamin-related protein 1 (Drp1), human, isoform 3, printed length 699 aa; also called BODIPY-labeled Drp1; dye-labeled Drp1; source: E. coli, purified, then labeled with thiol-reactive BODIPY-FL iodoacetamide
- binding result [4]: binds

B5: Drp1-AF488 (Drp1 labeled on surface Cys with Alexa Fluor 488 C5-maleimide) (natural protein, human, UniProt O00429-4 1-699, looked up)
chain: B1 chain
modifications: AF488 maleimide on Cys; primary targets of thiol modification are surface residues C505 and C607; ~2 mol dye/mol protein
notes: dynamin-related protein 1 (Drp1), human, isoform 3, printed length 699 aa; also called AF488-labeled Drp1; dye-labeled Drp1; source: E. coli, purified, then labeled with thiol-reactive AF488 maleimide
- binding result [4]: binds

B6: Drp1-mEGFP (C-terminally mEGFP-tagged Drp1 isoform 3), recombinant from E. coli (natural protein, human, UniProt O00429-4 1-699, looked up)
chain: B1 chain
- decrease in GTP turnover (kcat) relative to Drp1-wt, basal and cardiolipin-stimulated, malachite green assay, 0.5 uM protein [1]: > 50%
